Target: SARS-CoV-2 3CL^pro enzyme (Recombinant derived from Escherichia coli, ab277614, ABCAM; SEQ ID NO:2) (SARS-CoV-2) (UniProt P0DTC1)

Substance: 3CL^pro specific antibody (Rabbit-derived, NBP3-07062, Novus Biologicals; binding to SEQ ID NO:3)
- time to maximal binding: 20 s
